According to the DeepSol protein solubility set:

Assay: soluble on expression in E. coli; label from the status in PepcDB or PDB records

| Sequence | soluble on expression in E. coli |
| --- | --- |
| MGSDKIHHHHHHMVLMKKLMMKGNEAIAESAIRAGCRLYFAYPITPQSEIAEYMARRLPEVGGVFLQTESEIATVNMVYGAACTGKRVMTSTSSPGFSLMQEGISYIAGAELPCVFVDVVRGGPGLGNIQPSQGDYFQAVKGGGHGDYRLIVLAPSTLQEAVDLTQLAFDLADRYRNPVLILADGMIGQMMEPVELPEMRDLSTLPDHSDWALRGARNREPHRIAAFNIDPVGLEKMNKRLQEKYRLIEASEQRWEEYRVDGAEYLMVGYGTMGRILKSVVDSLREEGIPAGLFRPVTLWPFPKRRLKELAKKVQLIFVVEMSSGQMVEDVQISVEGKVPVHFYGRMGGVVPTPEEILFAFKEVRKWK | not soluble |
| MVTRVLIVGDGDAGTIMANKLRFHTDRRDVDITVVGNSKDHYFKPDGVHISFNMVDYKKSVKPTEFLFNYGVNYIRDTVSRIDVADHSVQTTGGRNLDYDYLIIATGDRFTPEDVPGYAESAKHFYDLPHALELQKEIKGFKGGKVVIGQASIPIMCPPAPYEFTFLLEEYLNFHGLKDKTEIHYIYPLNRVFTIPNVADFVAKRMEERGIITHTLFNVESIDPKNKKIQSLEGESINYDLLVLIPPHRGQKVITDSGLADESGYIDVDKYKLNYKDYDNVFAIGDATNLPVSKAGATAHFEALYLSNRIAAETSGNVYNELYEGDVACTTVTGYEKGLTLYFNYNKPPRANYDSKLDYFLKWQSGDTFFSSMLRGVALEHHHHHH | not soluble |
| MGHEAKHPIIIGITGNIGSGKSTVAALLRSWGYPVLDLDALAARARENKEEELKRLFPEAVVGGRLDRRALARLVFSDPERLKALEAVVHPEVRRLLMEELSRLEAPLVFLEIPLLFEKGWEGRLHGTLLVAAPLEERVRRVMARSGLSREEVLARERAQMPEEEKRKRATWVLENTGSLEDLERALKAVLAELTGGAKEGRG | soluble |
| MSLKLLPAKQEAIEFVHFANVINDYLYKYPDKRNSGGTLTSEQIGITPVYDIHHIIYGKRVYIWSADTEGLMSALQQQTKHSAMLGRVKNKKIVDNQGNDMGVPVPSSIPEEAIVLINEGHHHHHH | soluble |
| MSLEILTAGPMLTVQDAGRFGLRHMGVSPAGPIDRAAMALANALVGNDPGAAALEFAGPAGRFRCDRPVRFAVAGADCPLRIDARTVSPGESHRLNPGETLTVGVPEGAVWAYLAFSGAIASPEVLGSRATHLRSGVGGRALGAGDRLPLGEDDPEAPCLRPGLRLEAAAPFRETGPIRLILGPQDDHFAPEVIARLTGCDFTVTPQRDRMAMVLGGVELPAERGHDIVSDGTVPGSVQVPGSGTPLVLLAESQTTGGYPKIGTVASVDLARLAQMPVGARFRFALISAREGEDLWIARQAR | not soluble |
| MLSCELYRMSTYSTFPAGVPVSERSLARAGFYYTGVNDKVKCFCCGLMLDNWKRGDSPTEKHKKLYPSCRFVQSL | soluble |
| MTWLDEKGRFAIYEAPQNCPYLGTIGACYEFGSLPVILMFPELEKSFLKLLIRHIREDGYVPHDLGYHSLDSPIDGTTSPPRWKDMNPSLILLVYRYFKFTNDIEFLKEVYPILVKVMDWELRQCKGNLPFMEGEMDNAFDATIIKGHDSYTSSLFIGSLIAMREIAKLVGDSNYVDFISEKLSSAREAFRRMFNGRYFKAWDSVDNASFLAQLYGEWFTTLVGLEDIVEEDIIKKALESIIRLNGNASPHCVPNLVDDNGKIVGLSVQTYSSWPRMVFAICWLAYKKGVGDLSFCKKEWDNLVKNGMVWDQPSRINGYNGKAEMNYLDHYIGSPSPWSFLFLEHHHHHH | not soluble |
| FSDAFETAFFSVSNIGLHARAYKDKLFVHTASLRSGNPYKQVDLLVLDAKGETVLQGATDDNGNALLNYTLNAGHVLVSRNGRDISILPFNQPALDLSEFAVAGRENPWFDVFAWSGRDLYRPGEMLRISALLRDRDGKPVKPQPVFLRLKQPDGKTFRETRLQPAEQGYLEFTQKIPSDAPTGRWRVEFRTDPASKEAVQGLAVRVEEFLPERMKLELSSAQPVLRAKAPFTLTADAAYLYGAPAAGNRFTANLAVAVEQHPLDNMPGWFFGDATL | not soluble |
| MGSDKIHHHHHHMSISQMQVFNKYFMPAIIETLGQQIQKFNAASRGAIMLTTAGFEGDFLQESFYQAIHGARRRVDRYAANGSASPTDLTQLKHSSVKVAGGFGPIRYEPSQMTWLEKPTAEGIEVASRHFAEALLQDQLNTAIAALVAAISNQALATVNVSAKTGLNYSVLNDAHAKFGDSSGLIVANVMSGQVYHKLIGQNLVNAQQLFEYGAVTVVDILGKTVVVTDAPALYATGTPNLQKVLGLVAGAATVSDGGDLITNIETSNGKERIETTFQADYTFGLGLKGYTWDEATGGKSPTDAELATGTNWDKVATDIKHTAGVIAIGDASK | not soluble |
| MGSDKIHHHHHHMLLHFVPINVFRETPQVSFFDAGVNGSNGADVVIHHKNAISPPDDGNFEQYYIHNHQVDHNLVIEGSRKFTLINPKWDEPHHVIFLNRAMGALQIPIGTYHRSESGKEGSIVLNQATRDDMFDQRKEFSPVSLRSNKQLRKARQAHPVYWIWEEERIKRVKLDCKGYSKNIKLEPLKTAH | not soluble |
| HSHDWLTYPAGIHAKTVTGKPLVVHVHATDFDRSRGNVNPQVFAIEKDGMNHADHIITVSNLTRRTVIEKYGQHPDKVTTVHNAVEPLPASILALPDKRGVKDKVITFLGRITMQKGPEYFVEAAAKVLERTSDVRFVMAGNGDMMDAMIRLAARHKIADRFHFTGFMKGEQVYEVFKASDVYVMPSVSEPFGISPLEAMQCGVPSIISKQSGCAEILDYAIKVDYWDIDAMADAMHALIAYPELHTFLRDEGLREVNNIKWETAGQKVRDIYNKVTGR | not soluble |
| MQFGIFTIGDVTTDPTTGVTPSEHDRINAMTQIALKAEEVGLDVFATGEHHNPPFVPSSPTTHLAYIAAQTKNIQLSTSTTLITTNDPVKIAEDYAFLQHLSGGRVDLMMGRGNTGPVYPWFGKDIRKGIPLAVENYHLLRKLWREPVVNWKGEFRTPLQNYTSTPAPLGDVPPFVWHGSIRSVQIAEQAAFYGDGFFHNNIFWNKEHTAQMVNIYRQRFEKYGHGRADQAIVGLGGQVFIGETEAEAKKFFRPYFDNAPVYGHGPSLEEFTELTPLTVGTVEQVIERTMQFADWVGDYQRQLFLIDHAGLPLEVVLNQIEILGTQVVPELRRRMEKRRPDHVPSDPPSHSFLKAHPEHPHFLVEPSKTSAQ | not soluble |
| MARGPKKHLKRLAAPKAWMLDKLGGVFAPRPSTGPHKLRESLPLLIFLRNRLKYALNGAEVTKIVMQRLVKVDGKVRTDPTYPAGYMDVITLEKTGEFFRLVYDVKGRFVIHRISAEEAKYKLCKVKKTQLGAKGVPFLVTHDGRTIRYPDPLIHANDSVQVDIASGKITDYIKFDSGNLCMITGGRNLGRVGTVVNRERHPGSFDIVHIKDSQGHVFATRLTNVFIIGKGNKPYISLPKGKGVKLSIAEERDKRLAAKTH | not soluble |
| MLFTKASEYALLSLIYISQKETPQDVDSLALELDIPKSFLAKILQTLAKDGLLKSFKGAKGGFVLIKEPSQYTIKEIVNSAEKKDISVFECSGGTCPNNKEENCTLMPMLVNLQNKVDEFLDSITLEDIMKNNGKK | soluble |
| MFTTKGIDISGELTMMGIPEQNSKTVTPGLHYAADGFRLSGGNANFIARNMASVTGNIYADDAATITLGQPETETPTISSAYQAWAETLLYGFDTAYRGAITAPKATVSMNNAIWHLNSQSSINRLETKDSMVRFTGDNGKFTTLTVDNLTIDDSAFVLRANLAQADQ | not soluble |
| PGDESEEQSIKAGMMVCHVFVPGFDDLSEQQQIHMAQAIDHPVRKTAHATEYAMLAGLVLGAVTVSIIRWKNVLVSVCIAVLYASTDELHQLFVPGRSGQVKD | not soluble |
| MSLNSQGYAVVDFETTGLSPAKGDRAIEIGLVHVAPDGTLEDEHETLIHVDRSVGASWVHHITARELLHAPDFEGIAHELRDLLAGRVFVAHNVSFDSRFLLAEYSRMGASIPVDQSTMLCTMKLSRSLIGRGKLADCCEYFGIANEDAHSALSDAHATAILLGRLLEADPKWPGFQRRLDAAGAAAEQWPTEGHHHHHH | not soluble |
| MNEFEDLLNSVSQVETGDVVSAEVLTVDATQANVAISGTGVEGVLTLRELTNDRDADINDFVKVGEVLDVLVLRQVVGKDTDTVTYLVSKKRLEARKAWDKLVGREEEVVTVKGTRAVKGGLSVEFEGVRGFIPASMLDTRFVRNAERFVGQEFDTKIKEVNAKENRFILSRREVVEAATAAARAEVFGKLAVGDVVTGKVARITSFGAFVDLGGVDGLVHLTELSHERNVSPKSVVTVGEEIEVKILDLNEEEGRVSLSLKATVPGPWDGVEQKLAKGDVVEGTVKRLTDFGAFVEVLPGIDGLVHVSQISHKRIENPKEALKVGQEVQVKVLEVNADAERVSLSIKALEERPAQEEGQKEEKRAARPRRPRRQEKRDFELPETQTGFSMADLFGDIELLEHHHHHH | soluble |
| MGSDKIHHHHHHMINKELTAATFMEVIAEDNRFIYDGIDSNFEPELVFLEFFEALLSFAFICVTDQMTKSYTNVPADDVSGNKHETIYTILNQDAQNKSPSAVMSHESDAAHSDSARSSSSKLELSPDVNKIRKSEPKIKKSVSHERVSKMNFKLTGKGITFFSSESKKYERPKDDREEEFNTWVNNTYVFFVNTLFHAYKREEAIKEKIRADRLRSTAQAQQRKMEDDELEARLNIFILREEEAKRHDYEVDITVLKEPADVSSSHLILDPPKEDVTVSPSSKTITSKKKKK | not soluble |
| MSFKVISTGPQAIFQDRGRFGFASAGVGTSGSFDRLSAARANHALGNDPNATVVEILLGGFEVEALHTTSIVFTGTEAEVMVRTAGGQSKNATTNTIIDVAAGERIRVEPATYGMRAYFAARGGFAVEKTLGSASTDLISHMGPRPIEPGDVIDVATDIADSQWWPKLRQLPTLWKRMPTETLTVIRGPRDKWFTQESLNNFFTQVFTVSNDSNRIGLRMHSSEPIQHRVEGELKSEGMVRGSIQIPPGGNPVVFGPDHPVTGGYPVIAVLTSRSCDRSAQLLPGDKVRFKLL | not soluble |
| MITYYVRQLKTFSIMSLTLSNVILHKLVKNEQDELEVCLRNQTLENEEFTEALVSELHRVFNSKAGKGFGVFKTESEFGHWLSSVRKNETPFLEFSNNSAEKLKSELIKYPFAEEGILVIAEYQSLATEYLFVAVLPSNESMKVTEQLDISATDYLDIAKMDIAARIDLSTWETDSDSNRYLTFIKGRVGRKVSDFFLDFLQADVGMDTKVQNQVLMQAVEDFCADERLDQEEKQPYRKQVYDYCNGQLQAGEELTVKELASELPTSESGSNFYQFAEEQGYELEESFPVDRTALRKLTKFVGAGGGLSLNFDAMLLGERVFYDPETDTLTIKGTPPNLKDQLEHHHHHH | not soluble |
| MFQQLSARLQEAIGRLRGRGRITEEDLKATLREIRRALMDADVNLEVTRDFVERVREEALGKQVLESLTPAEVILATVYEALKEALGGEARLPVLKDRNLWFLVGLQGSGKTTTAAKLALYYKGKGRRPLLVAADTQRPAAREQLRLLGEKVGVPVLEVMDGESPESIRRRVEEKARLEARDLILVDTAGRLQIDEPLMGELARLKEVLGPDEVLLVLDAMTGQEALSVARAFDEKVGVTGLVLTKLDGDARGGAALSARHVTGKPIYFAGVSEKPEGLEPFYPERLAGRILGMGDVASLAEKVRAAGLEAEAPKSAKELSLEDFLKQMQNLKRLGPFSEILGLLPGVPQGLKVDEKAIKRLEAIVLSMTPEERKDPRILNGSRRKRIAKGSGTSVQEVNRFIKAFEEMKALMKSLEKKKGRGLM | soluble |
